This note sets out measurements from publication PMC12753239.

Experiment [1] has as its target zebrafish Ngly2 (amino acids: 45-663) (zebrafish (Danio rerio)). The experiment can be described thus: SEC; gel filtration at pH 4.0; elution around 150 kDa. (In general: SEC sorts molecules by how far they enter the pores of the column.)
For experiment [2] the target is unchanged. In words: SEC; gel filtration at pH 8.0; Superdex200 increase 10/300 GL, 20 mM Tris-HCl (pH 8.0), 150 mM NaCl; elution around 150 kDa.

Broadly, the stoichiometry N is the number of molecules, sites or subunits per partner or assembly. Consider “zebrafish Ngly2 (amino acids: 45-663) (enzyme)”, for which the stoichiometry N in experiment [1] and in experiment [2] was 2 throughout.
